The values that follow come from the supplement of paper PMC9112550, “Optimization of the antimicrobial peptide Bac7 by deep mutational scanning” (BMC Biology, 2022).

The subject of the data set is Escherichia coli TOP10. The experiment in a line: shrunken log2 fold change of peptide-encoding DNA abundance (4.5 h post-induction vs induction); higher = less antimicrobial activity (less host growth inhibition). Particulars: time post-induction: 4.5 h; library: site-saturation at positions 5, 18, 19, 20.
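Further: peptides expressed intracellularly from a pBAD plasmid library in pooled LB shake-flask culture, induced with 0.3% L-arabinose, DNA abundance read by NGS, three biological replicates, DESeq2 with apeglm shrinkage.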

Consider RRIRFRPPRLPRPRPRPDMRPRP, for which the “shrunken log2 fold change” value is -0.000242.

In the case of RRIRPRPPRLPRPRPRPEALPRP, the “shrunken log2 fold change” value amounted to 0.439.

For the sequence RRIRLRPPRLPRPRPRPISFPRP, the “shrunken log2 fold change” value is -0.158.

For the sequence RRIRHRPPRLPRPRPRPLICPRP, the “shrunken log2 fold change” value is -0.493.

On to RRIRQRPPRLPRPRPRPADPPRP, for which the “shrunken log2 fold change” value is 0.209.

Consider RRIRCRPPRLPRPRPRPVNPPRP, for which the “shrunken log2 fold change” value is -0.176.

On to RRIRIRPPRLPRPRPRPIFNPRP, for which the “shrunken log2 fold change” value was -0.589.

Take RRIRYRPPRLPRPRPRPTNCPRP: the “shrunken log2 fold change” value was -1.27.

Take RRIRGRPPRLPRPRPRPANAPRP: the “shrunken log2 fold change” value was determined as 0.694.

In the case of RRIRPRPPRLPRPRPRPVMDPRP, the “shrunken log2 fold change” value was 0.0311.

Take RRIRGRPPRLPRPRPRPGNMPRP: the “shrunken log2 fold change” value is -0.0382.

RRIRNRPPRLPRPRPRPVDWPRP: the “shrunken log2 fold change” value turned out to be 0.218.

In the case of RRIRNRPPRLPRPRPRPADMPRP, the “shrunken log2 fold change” value is -0.00154.

Consider RRIRDRPPRLPRPRPRPAYQPRP, for which the “shrunken log2 fold change” value was -0.381.

With RRIRFRPPRLPRPRPRPYCGPRP, the “shrunken log2 fold change” value was -0.306.

Regarding RRIRTRPPRLPRPRPRPNGTPRP, the “shrunken log2 fold change” value was -0.402.

For RRIRERPPRLPRPRPRPAWLPRP, the “shrunken log2 fold change” value is 0.471.

On to RRIRSRPPRLPRPRPRPWHGPRP, for which the “shrunken log2 fold change” value is -0.00232.

Take RRIRWRPPRLPRPRPRPQMIPRP: the “shrunken log2 fold change” value is -0.0866.

In the case of RRIRGRPPRLPRPRPRPLYTPRP, the “shrunken log2 fold change” value is 0.145.

Consider RRIRDRPPRLPRPRPRPEASPRP, for which the “shrunken log2 fold change” value came out at 0.447.

As for RRIRYRPPRLPRPRPRPQMMPRP, the “shrunken log2 fold change” value was -0.536.

On to RRIRLRPPRLPRPRPRPGNQPRP, for which the “shrunken log2 fold change” value was -0.0104.

In the case of RRIRARPPRLPRPRPRPGECPRP, the “shrunken log2 fold change” value was determined as 0.298.

As to RRIRDRPPRLPRPRPRPVRGPRP, the “shrunken log2 fold change” value worked out at 1.

For the sequence RRIRWRPPRLPRPRPRPHGQPRP, the “shrunken log2 fold change” value was -0.0861.

Take RRIRGRPPRLPRPRPRPTLVPRP: the “shrunken log2 fold change” value was 1.87.

On to RRIRVRPPRLPRPRPRPDAFPRP, for which the “shrunken log2 fold change” value worked out at 0.203.

As for RRIRDRPPRLPRPRPRPDGAPRP, the “shrunken log2 fold change” value stood at 0.657.

Regarding RRIRVRPPRLPRPRPRPAVSPRP, the “shrunken log2 fold change” value worked out at 0.0786.

In the case of RRIRMRPPRLPRPRPRPARNPRP, the “shrunken log2 fold change” value was -0.0385.

With RRIRGRPPRLPRPRPRPNYLPRP, the “shrunken log2 fold change” value was -0.304.

On to RRIRCRPPRLPRPRPRPWQFPRP, for which the “shrunken log2 fold change” value was -0.0402.

Consider RRIRSRPPRLPRPRPRPKWLPRP, for which the “shrunken log2 fold change” value is 0.104.

In the case of RRIRPRPPRLPRPRPRPAFLPRP, the “shrunken log2 fold change” value was -0.0283.

On to RRIRWRPPRLPRPRPRPFTSPRP, for which the “shrunken log2 fold change” value was -0.0735.

Turning to RRIRIRPPRLPRPRPRPLRSPRP, the “shrunken log2 fold change” value stood at 0.299.

As to RRIRSRPPRLPRPRPRPHQTPRP, the “shrunken log2 fold change” value is -0.066.

Consider RRIRVRPPRLPRPRPRPTLFPRP, for which the “shrunken log2 fold change” value is -0.0123.

Consider RRIRVRPPRLPRPRPRPNHQPRP, for which the “shrunken log2 fold change” value was -0.221.

Consider RRIRIRPPRLPRPRPRPMRIPRP, for which the “shrunken log2 fold change” value was -0.0754.

Turning to RRIRGRPPRLPRPRPRPPYHPRP, the “shrunken log2 fold change” value amounted to 0.0679.

For the sequence RRIRFRPPRLPRPRPRPCILPRP, the “shrunken log2 fold change” value is -0.0567.

For the sequence RRIRWRPPRLPRPRPRPSPWPRP, the “shrunken log2 fold change” value stood at 0.0588.

On to RRIRMRPPRLPRPRPRPSPLPRP, for which the “shrunken log2 fold change” value worked out at 0.302.

As to RRIRARPPRLPRPRPRPHQDPRP, the “shrunken log2 fold change” value was -0.126.

In the case of RRIRDRPPRLPRPRPRPAAYPRP, the “shrunken log2 fold change” value amounted to 0.174.

As for RRIRIRPPRLPRPRPRPVNMPRP, the “shrunken log2 fold change” value was -0.103.

Take RRIRHRPPRLPRPRPRPFIHPRP: the “shrunken log2 fold change” value was -0.1.

On to RRIRKRPPRLPRPRPRPDTGPRP, for which the “shrunken log2 fold change” value was -0.0244.

For the sequence RRIRFRPPRLPRPRPRPMHLPRP, the “shrunken log2 fold change” value came out at 0.00575.

Turning to RRIRKRPPRLPRPRPRPIPVPRP, the “shrunken log2 fold change” value was -0.193.

With RRIRWRPPRLPRPRPRPNEYPRP, the “shrunken log2 fold change” value was -0.39.

As to RRIRERPPRLPRPRPRPMTPPRP, the “shrunken log2 fold change” value is -0.0365.

Consider RRIRKRPPRLPRPRPRPMVAPRP, for which the “shrunken log2 fold change” value worked out at 0.629.

For the sequence RRIRYRPPRLPRPRPRPYMEPRP, the “shrunken log2 fold change” value was -0.0102.

Regarding RRIRDRPPRLPRPRPRPSNMPRP, the “shrunken log2 fold change” value was -0.0872.

Take RRIRARPPRLPRPRPRPCYPPRP: the “shrunken log2 fold change” value is -0.209.

In the case of RRIRGRPPRLPRPRPRPPYTPRP, the “shrunken log2 fold change” value is 0.145.

For the sequence RRIRPRPPRLPRPRPRPLFKPRP, the “shrunken log2 fold change” value was -0.348.

In the case of RRIRLRPPRLPRPRPRPWPFPRP, the “shrunken log2 fold change” value was -0.0764.

For RRIRSRPPRLPRPRPRPPPAPRP, the “shrunken log2 fold change” value was found to be 1.04.

In the case of RRIRRRPPRLPRPRPRPNEIPRP, the “shrunken log2 fold change” value was -0.0559.

Consider RRIRARPPRLPRPRPRPNWCPRP, for which the “shrunken log2 fold change” value came out at 0.206.

Turning to RRIRARPPRLPRPRPRPVNAPRP, the “shrunken log2 fold change” value is -0.0521.

Turning to RRIRFRPPRLPRPRPRPDEVPRP, the “shrunken log2 fold change” value is -0.00705.

As to RRIRPRPPRLPRPRPRPNCHPRP, the “shrunken log2 fold change” value was 0.0382.

Regarding RRIRPRPPRLPRPRPRPTWGPRP, the “shrunken log2 fold change” value was 0.593.

For the sequence RRIRQRPPRLPRPRPRPATCPRP, the “shrunken log2 fold change” value was -0.0483.

For RRIRDRPPRLPRPRPRPIYIPRP, the “shrunken log2 fold change” value is -0.288.

Consider RRIRTRPPRLPRPRPRPACLPRP, for which the “shrunken log2 fold change” value is -0.217.

Turning to RRIRNRPPRLPRPRPRPQGKPRP, the “shrunken log2 fold change” value came out at 0.0697.

For the sequence RRIRPRPPRLPRPRPRPVRPPRP, the “shrunken log2 fold change” value amounted to 0.854.

Consider RRIRNRPPRLPRPRPRPADCPRP, for which the “shrunken log2 fold change” value worked out at 0.131.

As to RRIRWRPPRLPRPRPRPEKEPRP, the “shrunken log2 fold change” value came to 0.0112.

RRIRPRPPRLPRPRPRPGCSPRP: the “shrunken log2 fold change” value is 0.266.

Regarding RRIRYRPPRLPRPRPRPKVWPRP, the “shrunken log2 fold change” value came to 0.221.

RRIRDRPPRLPRPRPRPFHYPRP: the “shrunken log2 fold change” value was -0.00232.

Regarding RRIRQRPPRLPRPRPRPRQCPRP, the “shrunken log2 fold change” value stood at 0.152.

On to RRIRARPPRLPRPRPRPVWPPRP, for which the “shrunken log2 fold change” value came out at 0.623.

In the case of RRIRRRPPRLPRPRPRPEPNPRP, the “shrunken log2 fold change” value is -0.00852.

In the case of RRIRRRPPRLPRPRPRPQTLPRP, the “shrunken log2 fold change” value was 0.101.

On to RRIRPRPPRLPRPRPRPLIHPRP, for which the “shrunken log2 fold change” value was -0.472.

As to RRIRMRPPRLPRPRPRPEIGPRP, the “shrunken log2 fold change” value came to 2.62.

Consider RRIRWRPPRLPRPRPRPGYYPRP, for which the “shrunken log2 fold change” value was -0.125.

As to RRIRRRPPRLPRPRPRPTSPPRP, the “shrunken log2 fold change” value was found to be 0.225.

As to RRIRERPPRLPRPRPRPQMIPRP, the “shrunken log2 fold change” value stood at 0.132.

For RRIRNRPPRLPRPRPRPDLLPRP, the “shrunken log2 fold change” value is -0.0183.

With RRIRCRPPRLPRPRPRPAGYPRP, the “shrunken log2 fold change” value was -0.342.

For RRIRSRPPRLPRPRPRPCVCPRP, the “shrunken log2 fold change” value was 0.0568.

Take RRIRLRPPRLPRPRPRPFDDPRP: the “shrunken log2 fold change” value is -0.00884.

As to RRIRFRPPRLPRPRPRPRGFPRP, the “shrunken log2 fold change” value was 0.27.

As for RRIRNRPPRLPRPRPRPRLEPRP, the “shrunken log2 fold change” value stood at 0.317.

With RRIRERPPRLPRPRPRPWLHPRP, the “shrunken log2 fold change” value was -0.262.

In the case of RRIRNRPPRLPRPRPRPRMMPRP, the “shrunken log2 fold change” value turned out to be 0.0809.

Take RRIRARPPRLPRPRPRPVVKPRP: the “shrunken log2 fold change” value came to 0.298.

In the case of RRIRFRPPRLPRPRPRPYKEPRP, the “shrunken log2 fold change” value is -0.0907.

Turning to RRIRTRPPRLPRPRPRPTAPPRP, the “shrunken log2 fold change” value was 0.159.

RRIRNRPPRLPRPRPRPGVNPRP: the “shrunken log2 fold change” value worked out at 0.0306.

As for RRIRIRPPRLPRPRPRPDTNPRP, the “shrunken log2 fold change” value is -0.73.

Regarding RRIRGRPPRLPRPRPRPWFNPRP, the “shrunken log2 fold change” value was -0.18.

With RRIRWRPPRLPRPRPRPWMKPRP, the “shrunken log2 fold change” value was -0.225.

As to RRIRHRPPRLPRPRPRPYEGPRP, the “shrunken log2 fold change” value was -0.0203.

As to RRIRPRPPRLPRPRPRPDYWPRP, the “shrunken log2 fold change” value was 0.207.

As to RRIRLRPPRLPRPRPRPSILPRP, the “shrunken log2 fold change” value is -0.57.

Regarding RRIRQRPPRLPRPRPRPDIYPRP, the “shrunken log2 fold change” value is -0.284.

On to RRIRRRPPRLPRPRPRPMRHPRP, for which the “shrunken log2 fold change” value is 1.18.

Take RRIRPRPPRLPRPRPRPPAPPRP: the “shrunken log2 fold change” value was found to be 0.629.

Regarding RRIRHRPPRLPRPRPRPVFRPRP, the “shrunken log2 fold change” value is 0.0291.

Turning to RRIRWRPPRLPRPRPRPRHNPRP, the “shrunken log2 fold change” value stood at 0.576.

Regarding RRIRERPPRLPRPRPRPPRTPRP, the “shrunken log2 fold change” value stood at 0.316.

Take RRIRKRPPRLPRPRPRPECVPRP: the “shrunken log2 fold change” value is 1.69.

In the case of RRIRARPPRLPRPRPRPCMVPRP, the “shrunken log2 fold change” value was -0.0554.

Turning to RRIRARPPRLPRPRPRPHQEPRP, the “shrunken log2 fold change” value was determined as 0.568.

Turning to RRIRKRPPRLPRPRPRPDVIPRP, the “shrunken log2 fold change” value is 0.153.

For RRIRGRPPRLPRPRPRPWLIPRP, the “shrunken log2 fold change” value was -0.192.

For RRIRERPPRLPRPRPRPKVWPRP, the “shrunken log2 fold change” value amounted to 0.332.

As to RRIRERPPRLPRPRPRPVIWPRP, the “shrunken log2 fold change” value came to 0.254.

Regarding RRIRLRPPRLPRPRPRPAMSPRP, the “shrunken log2 fold change” value turned out to be 0.019.

Regarding RRIRARPPRLPRPRPRPGFKPRP, the “shrunken log2 fold change” value was -0.02.

On to RRIRNRPPRLPRPRPRPQAHPRP, for which the “shrunken log2 fold change” value is -0.163.

As to RRIRARPPRLPRPRPRPMSSPRP, the “shrunken log2 fold change” value came out at 0.0476.

Take RRIRTRPPRLPRPRPRPEPDPRP: the “shrunken log2 fold change” value stood at 0.286.

RRIRHRPPRLPRPRPRPQVVPRP: the “shrunken log2 fold change” value was -0.101.

As for RRIRLRPPRLPRPRPRPCNSPRP, the “shrunken log2 fold change” value came out at 0.165.
